This test has as its target OS-9 fused to the N-terminus of EYFP (pEYFP-N1-OS-9) (human) (UniProt Q13438). As to the kind of experiment: FRET or BRET; live-cell confocal FRET of ECFP (donor) and EYFP (acceptor) fusions in HEK293 cells transfected 48 h; acceptor/donor plasmid ratios 1:1 to 5:1; FRET efficiency against A/D ratio fitted to a 1:1 binding model.

For one substance, maximum FRET efficiency results are on record in article PMC3084761.

Sequence of OS-9 fused to the N-terminus of EYFP (pEYFP-N1-OS-9) (human) (Q13438 26-667): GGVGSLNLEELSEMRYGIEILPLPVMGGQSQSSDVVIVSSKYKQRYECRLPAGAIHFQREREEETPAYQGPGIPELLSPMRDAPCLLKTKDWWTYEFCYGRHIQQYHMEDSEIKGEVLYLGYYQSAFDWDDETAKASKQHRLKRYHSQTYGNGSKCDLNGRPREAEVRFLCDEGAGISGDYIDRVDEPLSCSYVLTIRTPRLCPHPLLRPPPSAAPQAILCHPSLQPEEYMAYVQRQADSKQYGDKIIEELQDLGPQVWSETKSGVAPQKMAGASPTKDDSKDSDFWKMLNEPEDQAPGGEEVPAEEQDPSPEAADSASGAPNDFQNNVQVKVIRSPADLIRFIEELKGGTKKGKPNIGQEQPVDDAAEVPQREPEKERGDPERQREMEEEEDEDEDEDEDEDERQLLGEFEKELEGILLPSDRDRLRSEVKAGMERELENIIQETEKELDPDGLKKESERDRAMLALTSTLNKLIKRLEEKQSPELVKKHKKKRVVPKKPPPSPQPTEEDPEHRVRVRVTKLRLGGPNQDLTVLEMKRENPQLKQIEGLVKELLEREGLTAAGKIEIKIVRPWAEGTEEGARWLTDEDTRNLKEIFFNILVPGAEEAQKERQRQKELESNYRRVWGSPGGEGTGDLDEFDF

On to “PHD2-ECFP (PHD2 coding sequence in pECFP-N1) (from UniProt Q9GZT9 1-426) (enzyme)”, for which the maximum FRET efficiency was < 10%.
